According to patent US11541101B1, “LEMD3 antagonizes TGF-beta-driven Smad2/3 transcription in a stiffness-dependent fashion in both the nucleus and cytosol” (University of Virginia Patent Foundation, priority 2018, dated 2023):

Legend:
Format in all cases: cell-based, human
Smad2/3 = test: V5-Smad2/3 PLA with recombinant LEMD3 / CTF
Procedure: In vitro PLA: Protein-protein PLA was per-formed with antibody pairs listed in Table 4 as described in (42) with the following modifications: cells were plated on FN-coated glass or hydrogels (Matrigen, Brea, Calif.). All primary antibody in-cubations were performed for 16-24 hours at 4 C and cells were counter-stained with 1:40 phalloidin-488 or phalloidin-546 in 1×PBS for 30 minutes at room temperature and/or further processed for IF imaging using the procedure recommended in Sigma's PLA Resource Center. For all recombinant LEMD3 and C-terminal fragment experiments, HFFs were electroporated as above and allowed to culture for 24 hours on 10 μg/mL fibronectin coated glass or hydrogels before fixation. For LEMD3-phospho-Smad2/3, LEMD3-Smad2/3+TGFβ and for Smad2/3-Smad4 PLA assays: cells were treated 90 minutes before fixation with 50 μg/mL for LEMD3- and CTF-Smad2/3 assays, 100 μg/mL TGFβ for LEMD3-phospho-Smad2/3 experiments and 500 μg/mL TGFβ for Smad2/3-Smad4 experiments. For FLAG post-staining of PLA processed tissues, cells were blocked with unlabelled AffiniPure donkey anti-rabbit antibodies (Jackson ImmunoResearch, West Grove, Pa.) at a 1:10 dilution in 1×PBS-T at room temperature for 1 hour before further IF processing with 1:1000 rabbit anti-FLAG (#F7425, Sigma-Aldrich, Darmstadt, Germany) for 1 hour in PBS-T at room temperature. Following three washes with PBS-T for 5 minutes, each sample was stained with 1:500 goat anti-rabbit 546 in PBS-T for 1 hour at room temperature, washed again and then counter-stained as above. For V5 post-staining of PLA processed samples, cells were incubated with 1:200 647 labelled anti-V5 antibody (R&D Systems, Minneapolis, Minn.) diluted in PBS-T at room tem-perature for 1 hour before washing three times in PBS-T for 5 minutes each and then counter-stained as above. Imaging and analysis were performed as described for high-resolution ex vivo PLA signals except that no tissue autofluorescence signal was measured or needed to be subtracted and, when appro-priate, other IF signal (e.g. FLAG) were measured in parallel. For cells on Matrigen HTS plates (FIGS. 2c & 2d), the confluence of cells prevented identifying individual cell boundaries. Instead the PLA signal was quantified as the PLA volume divided by the nuclear intensity for each image. Each data point represents at least 3 unique surfaces with at least 12 cells measured per surface. For Smad2/3-Smad4 experiments, only two independent hydrogels were analyzed for the “CTF 500 μg/mL” and “Neon 500 μg/mL” groups due to loss of hydrogels during processing. Each bar in FIG. 5D represents the mean with standard error of the mean for all the cells analyzed from that condition.

PPM1α = PPM1α PLA; details: glass
Procedure: In vitro PLA: Protein-protein PLA was per-formed with antibody pairs listed in Table 4 as described in (42) with the following modifications: cells were plated on FN-coated glass or hydrogels (Matrigen, Brea, Calif.). All primary antibody in-cubations were performed for 16-24 hours at 4 C and cells were counter-stained with 1:40 phalloidin-488 or phalloidin-546 in 1×PBS for 30 minutes at room temperature and/or further processed for IF imaging using the procedure recommended in Sigma's PLA Resource Center. For all recombinant LEMD3 and C-terminal fragment experiments, HFFs were electroporated as above and allowed to culture for 24 hours on 10 μg/mL fibronectin coated glass or hydrogels before fixation. For LEMD3-phospho-Smad2/3, LEMD3-Smad2/3+TGFβ and for Smad2/3-Smad4 PLA assays: cells were treated 90 minutes before fixation with 50 μg/mL for LEMD3- and CTF-Smad2/3 assays, 100 μg/mL TGFβ for LEMD3-phospho-Smad2/3 experiments and 500 μg/mL TGFβ for Smad2/3-Smad4 experiments. […] Imaging and analysis were performed as described for high-resolution ex vivo PLA signals except that no tissue autofluorescence signal was measured or needed to be subtracted and, when appro-priate, other IF signal (e.g. FLAG) were measured in parallel. […] Instead the PLA signal was quantified as the PLA volume divided by the nuclear intensity for each image. Each data point represents at least 3 unique surfaces with at least 12 cells measured per surface. For Smad2/3-Smad4 experiments, only two independent hydrogels were analyzed for the “CTF 500 μg/mL” and “Neon 500 μg/mL” groups due to loss of hydrogels during processing. Each bar in FIG. 5D represents the mean with standard error of the mean for all the cells analyzed from that condition.

Smad3 phosphorylation = test: phospho-Smad3 to total Smad3 ratio by western blot; details: electroporation of TGFβ dosed HFFs on tissue culture plastic
Smad2/3-Smad4 complexes = test: Smad2/3-Smad4 PLA; details: over-expression, 500 μg/mL TGFβ, 1 kPa hydrogels, p=0.0081
Procedure: In vitro PLA: Protein-protein PLA was per-formed with antibody pairs listed in Table 4 as described in (42) with the following modifications: cells were plated on FN-coated glass or hydrogels (Matrigen, Brea, Calif.). All primary antibody in-cubations were performed for 16-24 hours at 4 C and cells were counter-stained with 1:40 phalloidin-488 or phalloidin-546 in 1×PBS for 30 minutes at room temperature and/or further processed for IF imaging using the procedure recommended in Sigma's PLA Resource Center. […] Imaging and analysis were performed as described for high-resolution ex vivo PLA signals except that no tissue autofluorescence signal was measured or needed to be subtracted and, when appro-priate, other IF signal (e.g. FLAG) were measured in parallel. […] Instead the PLA signal was quantified as the PLA volume divided by the nuclear intensity for each image. Each data point represents at least 3 unique surfaces with at least 12 cells measured per surface. For Smad2/3-Smad4 experiments, only two independent hydrogels were analyzed for the “CTF 500 μg/mL” and “Neon 500 μg/mL” groups due to loss of hydrogels during processing. Each bar in FIG. 5D represents the mean with standard error of the mean for all the cells analyzed from that condition.

B1: CTF: consensus C-terminal fragment of LEMD3 (SEQ ID NO: 25), expressed from pFLAG-LEMD3p.Δ21-669-V5 (protein, listed as Homo sapiens)
chain: MAAAAASAPQQLSDEELFSQRDSLIQPHDRKKMKKVWDRAVDFLAANESRVRTETRRIGGADFLVWRWIQPSASCDKILVIPSKVWQGQAFHLDRRNSPPNSLTPCLKIRNMFDPVMEIGDQWHLAIQEAILEKCSDNDGIVHIAVDKNSREGCVYVKCLSPEYAGKAFKALHGSWFDGKLVTVKYLRLDRYHHRFPQALTSNTPLKPSNKHMNSMSHLRLRTGLTNSQGSS
modifications: FLAG and V5 tags
overall CTF-Smad2/3 interactions versus electroporation control fibroblasts (Smad2/3; 1 kPa p<0.0001, 25 kPa p=0.0227): significantly more overall CTF-Smad2/3 interactions | CTF-Smad2/3 interactions, cytoplasm (Smad2/3; 1 kPa relative to 25 kPa hydrogels, p<0.0001): significantly more Smad2/3 interactions | CTF-Smad2/3 interactions overall (Smad2/3; 1 kPa relative to 25 kPa hydrogels, p<0.0001, FIG. 5B): significantly more Smad2/3 interactions | CTF-Smad2/3 interactions, nucleus (Smad2/3; 1 kPa relative to 25 kPa hydrogels, p=0.0082): significantly more Smad2/3 interactions | fraction of CTF-Smad2/3 interactions in the nucleus (Smad2/3; depending on stiffness, FIG. 5B): 40-55% | PPM1α interactions, total (PPM1α; vs Neon Only control, p<0.0001): bound PPM1α | PPM1α interactions, cytoplasm (PPM1α; vs control, p=0.0081): bound PPM1α significantly above background | PPM1α interactions, nucleus (PPM1α; vs control, p=0.2569): only endogenous LEMD3 was found to significantly bind PPM1α in the nucleus | pSmad3/Smad3 ratio (Smad3 phosphorylation): decreased the pSmad3/Smad3 ratio | TGFβ-driven increase in Smad2/3-Smad4 complexes (Smad2/3-Smad4 complexes): significantly abrogated
